In patent CN117736316A:

Molecular target: HIS-SFTSV-NP抗原 (recombinant SFTSV NP antigen expressed in E. coli BL21(DE3) from pET-30a) (新布尼亚病毒 (SFTSV))
Assay: indirect ELISA, NP antigen coated

B1: 单克隆抗体anti-SFTSV-NP-mab1 (antibody, V domains shown)
VH: EVQLEESGGGLVQPGGSRKLSCAVSGFTFSNFGIHWVRQAPEKGLEWVAYISSGGTTIYYADTVKGRFTISRDNPMNTLFLQMTSLRSEDTAMYHCARSDYFGMMDYWGQGTSVTVSS
VL: DIVITQTPSSLSASLGDRVTISCRASQDIRNYLNWYQQKPDGTVKLLVYYTSRLHSGVPSRFSGSGSGTDFSLTISNLEQEDIATYFCQQAHTLLTFGAGTKLEIK
- 工作浓度: 15.6 ng/mL
- 检测限 (of NP protein): 1.95 ng/mL
